The values that follow come from the Immune Epitope Database (IEDB).

Targets include HLA-A*02:02; HLA-A*02:06; HLA-A*02:01; HLA-A*02:03; HLA-A*68:02.
What all share (assay): IEDB peptide-MHC binding, purified MHC/competitive/radioactivity; ≥ and ≤ were set here for values at or beyond the usual limits of such assays
The mark [1] stands for this setting: source organism: Hepacivirus hominis.
[2] abbreviates: source organism: Vaccinia virus WR.

On to AIMTRCLAV, for which the IC50 with HLA-A*02:02 (source organism: SARS-CoV1) was 51 nM; with HLA-A*02:06 (source organism: SARS-CoV1), 27 nM; with HLA-A*02:01 (source organism: SARS-CoV1), 5.9 nM; with HLA-A*02:03 (source organism: SARS-CoV1) it was 15 nM; with HLA-A*68:02 (source organism: SARS-CoV1) it was 1300 nM.
Take VLMVDSFDPV: the half-maximal inhibitory concentration (IC50) came to 13 nM in the assay with HLA-A*02:02 (setting [1]); 31 nM with HLA-A*02:06 (setting [1]); 33 nM in the assay with HLA-A*02:01 (setting [1]); 12 nM in the assay with HLA-A*02:03 (setting [1]); 1520 nM with HLA-A*68:02 (setting [1]).
For TLLGLILFVL, the IC50 came to 169 nM in the assay with HLA-A*02:02 (setting [2]); 672 nM with HLA-A*02:06 (setting [2]); 35 nM with HLA-A*02:01 (setting [2]); 796 nM in the assay with HLA-A*02:03 (setting [2]); 720 nM with HLA-A*68:02 (setting [2]).
As for GVMYAFTTPL, the IC50 with HLA-A*02:02 (setting [2]) was found to be 34 nM; with HLA-A*02:06 (setting [2]), 45 nM; with HLA-A*02:01 (setting [2]) it was 83 nM; with HLA-A*02:03 (setting [2]), 44 nM; with HLA-A*68:02 (setting [2]) it was 2540 nM.
As to IQYRQQLEL, the IC50 with HLA-A*02:02 (setting [2]) came to 511 nM; with HLA-A*02:06 (setting [2]), 41 nM; with HLA-A*02:01 (setting [2]), 258 nM; with HLA-A*02:03 (setting [2]), 45 nM; with HLA-A*68:02 (setting [2]), 3570 nM.
The matching figures for CVDHPFIYV: 300 nM, 148 nM, 546 nM, 1410 nM and 5.1 nM.
On to MLVCGDDLVV, for which the IC50 turned out to be 45 nM with HLA-A*02:02 (setting [1]); 157 nM with HLA-A*02:06 (setting [1]); 97 nM with HLA-A*02:01 (setting [1]); 102 nM with HLA-A*02:03 (setting [1]); 3060 nM with HLA-A*68:02 (setting [1]).
For AIFNNRNLA, the IC50 stood at 272 nM in the assay with HLA-A*02:02 (setting [2]); 7.1 nM with HLA-A*02:06 (setting [2]); 3180 nM with HLA-A*02:01 (setting [2]); 98 nM with HLA-A*02:03 (setting [2]); 372 nM with HLA-A*68:02 (setting [2]).
The like results for DLLNVTYNI were, in that order, 297 nM, 1280 nM, 787 nM, 194 nM and 212 nM.
The matching figures for YLGIFKNNDV: 15 nM, 285 nM, 16 nM, 17 nM and 696 nM.
STSPTRTWKV: the IC50 came to 397 nM in the assay with HLA-A*02:02 (setting [2]); 504 nM in the assay with HLA-A*02:06 (setting [2]); 741 nM in the assay with HLA-A*02:01 (setting [2]); 717 nM with HLA-A*02:03 (setting [2]); 131 nM in the assay with HLA-A*68:02 (setting [2]).
The like results for SISSVLTIL were, in that order, 1.2 nM, 110 nM, 26 nM, 4 nM and 16 nM.
The like results for MLNRVQILM were, in that order, 4.8 nM, 2560 nM, 28 nM, 27 nM and 4200 nM.
As for NTVGMSIVCI, the IC50 with HLA-A*02:02 (setting [2]) stood at 3020 nM; in the assay with HLA-A*02:06 (setting [2]), 1210 nM; with HLA-A*02:01 (setting [2]), 3260 nM; with HLA-A*02:03 (setting [2]), 1540 nM; in the assay with HLA-A*68:02 (setting [2]), 198 nM.
The matching figures for ALVSDCAST: 701 nM, 311 nM, 115 nM, 31 nM and 771 nM.
On to MILMTHFFSI, for which the 50% inhibitory concentration (IC50) with HLA-A*02:02 (setting [1]) came out at 420 nM; in the assay with HLA-A*02:06 (setting [1]), 307 nM; with HLA-A*02:01 (setting [1]), 268 nM; with HLA-A*02:03 (setting [1]) it was 1120 nM; with HLA-A*68:02 (setting [1]) it was 883 nM.
Regarding SAFNDDGIYI, the IC50 with HLA-A*02:02 (setting [2]) amounted to 35 nM; with HLA-A*02:06 (setting [2]), 41 nM; with HLA-A*02:01 (setting [2]), 35 nM; in the assay with HLA-A*02:03 (setting [2]), 68 nM; in the assay with HLA-A*68:02 (setting [2]), 6.6 nM.
Regarding TLISSDGARV, the IC50 with HLA-A*02:02 (setting [2]) was found to be 142 nM; with HLA-A*02:06 (setting [2]), 1220 nM; with HLA-A*02:01 (setting [2]), 621 nM; with HLA-A*02:03 (setting [2]) it was 133 nM; with HLA-A*68:02 (setting [2]) it was 542 nM.
As for FVYVSVMNFI, the IC50 with HLA-A*02:02 (setting [2]) was 76 nM; with HLA-A*02:06 (setting [2]), 7.5 nM; with HLA-A*02:01 (setting [2]) it was 704 nM; with HLA-A*02:03 (setting [2]), 18 nM; with HLA-A*68:02 (setting [2]) it was 57 nM.
The like results for SLSNLDFRL were, in that order, 1310 nM, 1380 nM, 2880 nM, 1760 nM and 23 nM.
